Results taken from publication PMC3940202, “Structure of Bacillus subtilis γ-glutamyltranspeptidase in complex with acivicin: diversity of the binding mode of a classical and electrophilic active-site-directed glutamate analogue” (Acta Crystallographica Section D: Biological Crystallography, 2014).

Molecular target: T1, Bacillus subtilis γ-glutamyltranspeptidase large (L) subunit (Bacillus subtilis, UniProt P54422 36-402)
T1 construct: γ-glutamyltranspeptidase (GGT; EC 2.3.2.2) of Bacillus subtilis, large subunit, residues 36-402, formed from the precursor by autocatalytic cleavage before Thr403; The range 36-402 is what it gives for the L subunit of the protein; The His-tag segment and residues 396-402 are disordered in the crystal; also called GGT L subunit; His6-GGT (large subunit); source: E. coli C41(DE3), plasmid pCold …
T1 sequence (looked up): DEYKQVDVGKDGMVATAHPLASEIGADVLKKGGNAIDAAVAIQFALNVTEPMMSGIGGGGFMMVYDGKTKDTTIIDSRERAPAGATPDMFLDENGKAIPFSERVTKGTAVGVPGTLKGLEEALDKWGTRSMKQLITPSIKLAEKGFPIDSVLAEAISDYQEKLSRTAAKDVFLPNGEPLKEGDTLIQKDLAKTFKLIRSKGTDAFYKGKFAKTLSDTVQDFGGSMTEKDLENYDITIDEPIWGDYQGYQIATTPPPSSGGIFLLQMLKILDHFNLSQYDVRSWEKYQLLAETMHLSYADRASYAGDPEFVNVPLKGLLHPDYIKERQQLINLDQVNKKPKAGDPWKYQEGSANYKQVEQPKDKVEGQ
Assay: crystal structure; micro-oil batch method at 293 K; 10 mg/ml protein in 50 mM HEPES pH 7.0 mixed with 26%(w/v) PEG 3350, 0.7 M sodium thiocyanate, 6%(v/v) ethylene glycol; crystals soaked 2 h in 5 mM acivicin; refined at 1.8 Å; one heterodimer in the asymmetric unit
Conditions: both partners purified

- binding result: binds
B1: Bacillus subtilis γ-glutamyltranspeptidase small (S) subunit (enzyme, UniProt P54422 403-587, looked up)
chain: TTHFTVADRWGNVVSYTTTIEQLFGTGIMVPDYGVILNNELTDFDAIPGGANEVQPNKRPLSSMTPTILFKDDKPVLTVGSPGGATIISSVLQTILYHIEYGMELKAAVEEPRIYTNSMSSYRYEDGVPKDVLSKLNGMGHKFGTSPVDIGNVQSISIDHENGTFKGVADSSRNGAAIGINLKRK
modifications: acivicin covalently bound through its C3 atom to Thr403 Oγ (crystal soaked for 120 min, PDB 3whs; not in the crystal without soaking, PDB 3whq)
notes: γ-glutamyltranspeptidase (GGT); Made as one His6-tagged precursor with the L subunit and processed autocatalytically; also called GGT S subunit
